Target: GFP-MG53 (mouse) (UniProt Q1XH17)
Assay: cell-based or functional assay

Chain of UniProt Q1XH17 (Q1XH17 whole entry): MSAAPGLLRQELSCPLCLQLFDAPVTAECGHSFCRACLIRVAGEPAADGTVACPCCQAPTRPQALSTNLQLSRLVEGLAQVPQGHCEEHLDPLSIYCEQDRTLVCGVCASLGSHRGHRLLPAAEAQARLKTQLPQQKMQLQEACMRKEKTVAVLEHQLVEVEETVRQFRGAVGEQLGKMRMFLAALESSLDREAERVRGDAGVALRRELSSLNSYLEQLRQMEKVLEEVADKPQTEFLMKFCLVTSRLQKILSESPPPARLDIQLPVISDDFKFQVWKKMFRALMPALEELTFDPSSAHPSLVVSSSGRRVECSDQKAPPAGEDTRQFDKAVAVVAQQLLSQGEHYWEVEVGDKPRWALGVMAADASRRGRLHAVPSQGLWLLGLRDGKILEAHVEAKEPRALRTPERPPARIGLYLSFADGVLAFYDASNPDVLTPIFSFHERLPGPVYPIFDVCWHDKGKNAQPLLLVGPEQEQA

reduction in the appearance of filapodia-like structures in C2C12 myoblasts transfected with caveolin-3 and GFP-MG53 (about 10:1): 82%
Substance: caveolin-3 overexpressed from pcDNA-Cav-3

— patent US20130123340A1
